# Test results reported in the domain aggregation screens of Martell et al. (2025).
# Assay: soluble fraction after stress (log2 fold change); higher = more stays soluble; pooled small domains, quantitative proteomics
# Details: stress: 50 degC
# Summary of the method: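 Pooled custom libraries of small protein domains were each held under stress at 50°C. The read-out, high-throughput quantitative proteomics, tracked how much of each protein stayed soluble. This is reported as a base-two log fold change used to indicate aggregation propensity. Higher values mean more protein remains in solution.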
row,Sequence,soluble fraction (log2)
1,HMKQISNTDELETMVKKIIDDNEEQVNKYRGGNEKLFGWFVGQAMKNTGGTANPKVVNEILSKLLK,0.0976
2,HMKSQVVAYSDFVKAVNQKQINEVQIQGDKIRAINKAGEEITVTWLQNDQKLMDDLLDNNVKTIFLE,0.29
3,HMTMEFGEFLAKLRKERGYYQKEVAAYLNVTVATISNYEKNVHAPDLDTLVKLADFYDVSTDYLLQRT,-2.98
4,HMQYFDIETEIQKFIKSENNLSDFDKETLQSFLYQLSKGSPEENTAKKVVDILNKFLPLTTAIINMIKALT,0.168
5,HMAAIPATVDEETYRRLKPMLKQYGILYHEFKPLRSGKKGAVELIFMEKDLALVQELLSRLKKEK,0.422
6,HMKETIIPELLQNELDKNSELNDKFNTFSPYKQREFIEYIITAKQEKTQISRLQKVILMILEGRGLNN,-0.204
7,HMYTTHTQSELNEAARFNGRATYQKGIYYNESKKEHFKVVNGKYQALPNVKQVNGDSWIDKTGITHKG,-0.171
8,HMAHYPGKVNNELVEFIRSEQRKTPHMTLTGLNRKLQRTYDLTLSESTVRKLVEAETILPLAREPD,-0.0739
9,HMNIFKLYEENIGPLTPMIADILKEDEAEFPDYWIREAIEIAVKKNARNWKYVHAVLESWQKE,-3.38
10,HMSGALDTVVGIRMLKLLSTPIEKSKAFQVGIINKDGKKLRDPTSGERQHYTFLNRFVFKVQYALMRS,-0.211
11,HMLSAGETYTLGYLKASDGILFTAADGSEQTVMQRVQVRLYDNGDGTYTARLADDIAYSAVVTEDMIDK,-0.116
12,HMTDSISLTLNGDPRPFRAGATVADLVRDIGLDPAKVAVERNLEIVPRSTLENVHLADGDVLEIVHFV,0.0403
13,HMKNMSLGERIKEQRKSSGLSQEKVAEFVGVSRQAVTKWETGQSAPSTENLFKLAEIFGTTVDILLA,0.000199
14,HMDQTIFFGQQKAINNLSTDAGLSATELDEYLKKRYKRPLYQLTQAEGAEIIKGFQDGALSRSSILDYTK,-0.00165
15,HMGMAETTARILQLLGLLQSRRGWSGQELAERLGVTTRSVRRDVERLRELGYPVHASAGHGGGYQLGA,-1.8
16,HMEPEWVINTDGSNLNEILAIDEVDSRKTFSNDLQEVYRTFGIEAARQILVQEIDAVIESSGA,0.199
17,HMFPDLTGDELRIVDLLNTANDLQVNIITAKTNLPISRVTSLLFQLEMKGVVKPLAGGMYHLLG,-1.31
18,HMAVQPMDQVKAWLAEDNPADIKLLVPVLQKLDLLDYEQVRGEVADRAGVRKSLLDEAVKGN,0.0999
19,HMRQIMIIVLKSTATKEDSLLFKNKLEQEYGVKVNEWTGVESTVLGLIGDTTKIDIDYISAQDIVESVKRV,0.252
20,HMGTVVKRNALVHAWTEFNGGRASTKLLALGPGKVGEWIELENPQSGRKLRGEVQVDGSVRLG,0.11
21,HMLQIADEYLDRLQALFEDVRDNHFAIGDLLVELVDMHDSRRVDVINYIAGRLAISPTTLYDYENTARR,-0.792
22,HMDTIVHFLSDGRRITVRIKRNARKNIILRPMAADAVSATIPPWLGRRQLSAWLSEREDLLLSVLSRAA,-2.14
23,HMEIKDQADAYGKMEPASAAAILSEMTNDLTLVAKILDSMQTSKSALILQNMKPTTAAQVTTKMTAMK,0.0219
24,HMGIAFDYDAGRFDQVPPNLVEKWQQAYPAVDVLSELRRMEAWASANPVNRKSNWQRFIVNWLTRAQDRAG,-0.215
25,HMLTEREQDTLNFIRQYIDEQGRSPLVSEIAKGLGIKSQGTTHRYIQALVDAGLLERHVGRTRGLHLT,0.0721
26,HMKNLKLVSNTDGIRIDSWLADEFEDYSRSYLRKLIDQDLVYVNGNKIKANYKLKKGDEISISIPEPE,0.142
27,HMVMSTDAELILEYLAKHQGEMEITDKSSPELIMDTFNMSKGAFKRALGSLYKSKTVVIESTKVLLNT,-1.44
28,HMSVSTGTITGSVVNLREEPNTSSKVLDKLPKDTVVYVLSASGEWYNVSYGDKTGWVYGEYLA,-0.163

row,Sequence,soluble fraction (log2)
1,HMSTMLPFVMRELVELVMKKKALPLGDALYYIYSSKLYKSLLDKSTKLWYSSTLSLYETLEKEKTEEKRRY,-1.79
2,HMGHEALSSKLDEIQGVGKEKRSLLLDHFKTFERIKNASMEELEAVPSLGKNTAKAVFRFFHS,0.07
3,HMSADLVYLRKRLQDAIAQLPENMRTAYTLFQIANRSIREISELTGASESLVKVRIHRAKGKLQKQLEDLK,-1.33
4,HMAQKQLYIAGTDYTKNSTSQLVLAYFPAKPSSIKIFFDGIYQNKDKWSLFGKTIIFGLPISSNAVEVHYE,-2.1
5,HMDTETLIDKYQLNASEAAVLRFMDKNRDSLRDLGIRDVARASYVSTATIVNMAKKIGYSGYSELVFAYGS,-1.09
6,HMTGESIPFSKFLSEVDSGRVINVEIQGNNISGLLSDGNKFKTYSPNYPNLVEILSEKEVSIVATPLE,0.0525
7,HMQKKYLAVKEYLLEQINSGAYQPDEPIPPEREMAAMLGVNRMTLRRAVEELMYEGLLIRKKGSGTFLTK,-1.52
8,HMEYMKQRLYDIIELFKRSFSPSFSEEEKKKLENVLQDDFLRKAYEQLSDEVFIEEKFREFDGY,-1.73
9,HMEVFTPSEANVAEAREILAAMATAKANGEGATVYKGRLVDIASIKQAEVIVRQSEMIQSAH,0.408
10,HMAAEEAFPGGRIVQNAEENRLQILFDEIPGEDVRAALKSHGFRWSPKNKAWQRQLTQNAEYDARRILGI,-0.00473
11,HMKDGMRVYITYHDSEEEPEKPIGDGTTKGWHTNSTASVVWISQKVAESADLGIWGDPIRIKGEA,-0.14
12,HMIMMTLGEKIRSIRKAKGMTQQELAEKLNTTKQTIGKYEKGIVTNLPLFRINELARALSTTPAYLTGW,-1.41
13,HMSLLQDRQRHEALAALGYYRGSVSAAWGAASVEALKAAQAALGVEVDGKWGPKTEDVIQAALGT,-0.00704
14,HMTPGPYETLKPAPLGSYIEPKIGFATAIEIARKEAVQLGIKTEAGGIWYGGDFPFYNVSFFDPDD,-0.615
15,HMPESFSEMQKRTGVGEFSDDALSAKYVDSIDADVMSLDEYIMKVRGISLDDLEAERALRAR,0.0325
16,HMKNIRKQAIEAIDRIKNGNPIVISKNAKLIFKNIAKEANVSPTELHREFRDVMLYVNSLKAP,-0.255
17,HMPSPFYIMDEVEAALDDTNLGRLITLFEELRDSSQLIVITHQKKTMEIADALYGVTMRGDGITTVVSQRL,-0.343
18,HMRLDSELVSARLHRFMGTNRKPDGEIVEKIAAILEGHPIETLDAFLQSLNGRKIKSYGFFPTVLRREIAN,-0.319
19,HMSASNSIDFANRMIYNKNQVAVFNFGKHMGRPVLEVLKSDPSYYDWMMKGDFPMDTKRKLTEIKLQGF,-0.755
20,HMETGKLIKELRLKKGMTQEELADKTEVSSRTIQRIENGEVDPRAYTLQMIARALEVDYSLFME,0.0531
21,HMKLTKPQEVFIQELLKGSSQYEAYLKAYPSKKTWKRNSIDTEASKLFKNAKIKQRYEELLYNIREE,-0.167
22,HMVLTSFHDNFPKTGTTYTVRSGDTISGIATKFGSTRDWIQNANEISHPKYLQVGRTLFIPH,-0.203
23,HMGKIILLFSDDDGVFDTALYRVRNYDGHRFAQSLGNAEMKWRHSEDEYFDFVLTSLREDGYDIEEIE,-1.22
24,HMYDESVFTGEYHYYYEKLSDDDKLIYRQIYAMMQKRMDGISLNTTDTDNVSRIQQFVLLDNPQF,-3.04
25,HMNEKGTNSTINEITRISKPGRRVYVGSAEIPKVKSGRGLVLISTSKGVMTGAEAAKAKLGGELLLKV,0.0901
26,HMKKASLSTVEKKLMKQNYSNDTMENRLARVESYMFGTVFSSDDTQTRIDRISSAYNAQKSS,0.142
27,HMSDRESYGRYRNVSLTLSEYESLKNEYPLYADKYIERLSEYMETAGKHYNNHYATILSWLSKDIK,-0.487
